Laboratory results: publication PMC10450579 (2023)
Several values for one entry are separate records, joined by “and”; a condition that tells them apart may be missing. Equal values may be shown once.

B1: Aurora A kinase (AurA), residues 122 to 403 (domain or fragment)
chain: ESKKRQWALEDFEIGRPLGKGKFGNVYLAREKQSKFILALKVLFKAQLEKAGVEHQLRREVEIQSHLRHPNILRLYGYFHDATRVYLILEYAPLGTVYRELQKLSKFDEQRTATYITELANALSYCHSKRVIHRDIKPENLLLGSAGELKIADFGWSVHAPSSRRTTLCGTLDYLPPEMIEGRMHDEKVDLWSLGVLCYEFLVGKPPFEANTYQETYKRISRVEFTFPDFVTEGARDLISRLLKHNPSQRPMLREVLEHPWITANSSKPSNCQNKESASKQS

Tests used:
[1] = biological target: Mb3; assay: ITC; AurA preincubated with danusertib
[2] = biological target: Mb3; assay: ITC
[3] = biological target: B1; assay: ITC

Binder: B1
- Kd [1]: 69 nM
- Kd [2]: 180 nM

B2: monobody Mb2 (designed binder)
chain: GSVSSVPTKLEVVAATPTSLLISWDAPAVTVVHYVITYGETGGNSPVQEFTVPGSKSTATISGLKPGVDYTITVYAIDFYWGSYSPISINYRT
- Kd [3]: 889 nM and 1500 nM
